Target: T1, full-length human kinesin-1 heavy chain (KIF5B) (human, UniProt P33176 1-963, LD555, LD655 or Alexa488 label (imaging assays))
T1 sequence (looked up): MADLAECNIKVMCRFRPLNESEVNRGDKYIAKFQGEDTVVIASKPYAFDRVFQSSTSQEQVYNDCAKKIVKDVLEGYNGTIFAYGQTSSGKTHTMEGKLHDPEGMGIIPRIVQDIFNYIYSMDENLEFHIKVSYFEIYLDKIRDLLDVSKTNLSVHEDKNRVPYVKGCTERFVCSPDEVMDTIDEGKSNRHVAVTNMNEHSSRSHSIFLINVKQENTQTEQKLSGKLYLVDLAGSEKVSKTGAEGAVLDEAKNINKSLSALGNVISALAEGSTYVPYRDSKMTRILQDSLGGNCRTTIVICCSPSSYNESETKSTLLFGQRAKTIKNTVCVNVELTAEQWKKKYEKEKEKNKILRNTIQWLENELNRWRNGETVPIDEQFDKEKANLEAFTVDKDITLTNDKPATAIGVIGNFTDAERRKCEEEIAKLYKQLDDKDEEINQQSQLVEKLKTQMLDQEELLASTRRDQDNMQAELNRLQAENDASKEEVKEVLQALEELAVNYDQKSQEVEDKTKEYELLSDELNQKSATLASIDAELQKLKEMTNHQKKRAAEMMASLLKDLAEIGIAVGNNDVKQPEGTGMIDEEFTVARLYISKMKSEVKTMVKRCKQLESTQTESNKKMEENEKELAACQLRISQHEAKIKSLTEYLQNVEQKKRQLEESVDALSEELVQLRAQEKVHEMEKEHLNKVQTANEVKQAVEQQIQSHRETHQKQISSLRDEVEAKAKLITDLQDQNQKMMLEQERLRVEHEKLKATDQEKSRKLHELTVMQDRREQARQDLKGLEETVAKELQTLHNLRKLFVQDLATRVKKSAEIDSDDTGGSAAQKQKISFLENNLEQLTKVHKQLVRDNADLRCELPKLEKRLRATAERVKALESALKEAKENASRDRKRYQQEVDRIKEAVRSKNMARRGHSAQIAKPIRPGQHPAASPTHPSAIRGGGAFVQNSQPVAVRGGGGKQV
Assay: single-molecule colocalisation on microtubules

- binding result: binds
B1: TRAK1^1-532 (domain or fragment, human, UniProt Q9UPV9 1-532, looked up)
chain: MALVFQFGQPVRAQPLPGLCHGKLIRTNACDVCNSTDLPEVEIISLLEEQLPHYKLRADTIYGYDHDDWLHTPLISPDANIDLTTEQIEETLKYFLLCAERVGQMTKTYNDIDAVTRLLEEKERDLELAARIGQSLLKKNKTLTERNELLEEQVEHIREEVSQLRHELSMKDELLQFYTSAAEESEPESVCSTPLKRNESSSSVQNYFHLDSLQKKLKDLEEENVVLRSEASQLKTETITYEEKEQQLVNDCVKELRDANVQIASISEELAKKTEDAARQQEEITHLLSQIVDLQKKAKACAVENEELVQHLGAAKDAQRQLTAELRELEDKYAECMEMLHEAQEELKNLRNKTMPNTTSRRYHSLGLFPMDSLAAEIEGTMRKELQLEEAESPDITHQKRVFETVRNINQVVKQRSLTPSPMNIPGSNQSSAMNSLLSSCVSTPRSSFYGSDIGNVVLDNKTNSIILETEAADLGNDERSKKPGTPGTPGSHDLETALRRLSLRRENYLSERRFFEEEQERKLQELAEKGE
modifications: LD555 dye on the SNAP tag (imaging assays)
